Experiments:
[1] = target: T1, human complement protein C6 (human, UniProt P13671 22-934); assay: SPR (Biacore 8K), IgG on protein G chip, C6 0.31-20 nM 2-fold series, 1:1 fit
T1 construct: also called human C6; C6 antigen
Procedure: (§1) The kinetics of C6 binding was compared for the purified chimeric and lead humanized C601 using surface plasmon resonance (SPR, Biacore 8K). IgG were captured on a protein G sensor chip and binding of C6 measured using a three-fold concentration series of C6 from 0.03 nM-25 nM (FIG. 5). In a second experiment, a two-fold concentration series from 0.31 nM-20 nM C6 was used (FIG. 6). For all antibodies, binding of C6 occurred in a concentration-dependent manner and data could be fitted using a 1:1 model to calculate the association rate (kₒₙ), dissociation rates (kd) and affinity constant (KD). The kinetic data are shown in Table 5, which indicates only small differences between the parameters determined from the two independent experiments.

[2] = target: T1, human complement protein C6; assay: C6-binding ELISA, A650 nm; sample 'mouse serum' (28 days at 37 C) [cont.) E]
Procedure: (§2) For the serum stability assessment, samples of the purified candidate antibodies are normally incubated in mouse, human and cynomolgus serum at 37 C for 28 days and then tested in an antigen-binding ELISA. Since the anti-C6 antibodies are expected to bind to both human and cynomolgus C6 but not mouse C6, we anticipated that incubating in human or cynomolgus sera would reduce ELISA binding due to occupation of the antibody binding sites by C6 protein from the sera. Therefore, the chimeric and humanized antibodies were tested with human and mouse sera and with human sera from which the C6 protein has been depleted. […]
(§3) Binding ELISAs used Nunc Maxisorp 384-well plates, wells coated with C6, C5b,6 complex or C5 (Complement Technology Inc, TX) and goat anti-human IgG (Fab specific) peroxidase secondary antibodies (Sigma-Aldrich, A0293) for detection. For the thermal stability assay, IgG supernatants were diluted to their EC₈₀ concentration, incubated at different temperatures for 10 min and C6 binding measured by ELISA with the binding signal plotted against temperature. Kinetics of C6 binding were measured by capturing antibodies from supernatant samples using Protein G biosensors and performing a 20 min association step with 2.5 nM C6 and a 20 min dissociation step using the Octet RED96. […]

[3] = target: T1, human complement protein C6; assay: SPR (Biacore 8K)
Procedure: as §1
(§4) Binding ELISAs used Nunc Maxisorp 384-well plates, wells coated with C6, C5b,6 complex or C5 (Complement Technology Inc, TX) and goat anti-human IgG (Fab specific) peroxidase secondary antibodies (Sigma-Aldrich, A0293) for detection. For the thermal stability assay, IgG supernatants were diluted to their EC₈₀ concentration, incubated at different temperatures for 10 min and C6 binding measured by ELISA with the binding signal plotted against temperature. Kinetics of C6 binding were measured by capturing antibodies from supernatant samples using Protein G biosensors and performing a 20 min association step with 2.5 nM C6 and a 20 min dissociation step using the Octet RED96. Precise kinetic measurements were obtained by surface plasmon resonance (Biacore 8K, Cytiva). The IgG were captured on a protein G sensor chip. Binding of C6 measured using a three-fold concentration series of C6 from 0.03 nM-25 nM and data were fitted using a 1:1 model in two independent experiments.

[4] = target: T1, human complement protein C6; assay: C6-binding ELISA, A650 nm; sample 'PBS' (28 days at 37 C) [cont.) E]
Procedure: (§5) For the serum stability assessment, samples of the purified candidate antibodies are normally incubated in mouse, human and cynomolgus serum at 37 C for 28 days and then tested in an antigen-binding ELISA. Since the anti-C6 antibodies are expected to bind to both human and cynomolgus C6 but not mouse C6, we anticipated that incubating in human or cynomolgus sera would reduce ELISA binding due to occupation of the antibody binding sites by C6 protein from the sera. Therefore, the chimeric and humanized antibodies were tested with human and mouse sera and with human sera from which the C6 protein has been depleted. The C6-binding ELISA was then used to compare the binding abilities of the C601 antibodies that had been incubated in the 3 different sera to antibody samples that were incubated in PBS at 37 C or kept at 4 C (non-incubated).
(§6) The Uncle instrument (Unchained Labs) was used to monitor unfolding via intrinsic fluorescence and aggregation by static light scattering across a temperature gradient to obtain melting temperatures (Tₘ). […] Isoelectric points were determined by capillary isoelectric focusing using a PA800+ (Beckman Coulter). […]

[5] = target: human complement protein C5 (human, UniProt P01031 19-673; P01031 678-1676); assay: ELISA, C5-coated wells
Chain of human complement protein C5 (P01031 19-673 limits assumed, chain 1 of 2): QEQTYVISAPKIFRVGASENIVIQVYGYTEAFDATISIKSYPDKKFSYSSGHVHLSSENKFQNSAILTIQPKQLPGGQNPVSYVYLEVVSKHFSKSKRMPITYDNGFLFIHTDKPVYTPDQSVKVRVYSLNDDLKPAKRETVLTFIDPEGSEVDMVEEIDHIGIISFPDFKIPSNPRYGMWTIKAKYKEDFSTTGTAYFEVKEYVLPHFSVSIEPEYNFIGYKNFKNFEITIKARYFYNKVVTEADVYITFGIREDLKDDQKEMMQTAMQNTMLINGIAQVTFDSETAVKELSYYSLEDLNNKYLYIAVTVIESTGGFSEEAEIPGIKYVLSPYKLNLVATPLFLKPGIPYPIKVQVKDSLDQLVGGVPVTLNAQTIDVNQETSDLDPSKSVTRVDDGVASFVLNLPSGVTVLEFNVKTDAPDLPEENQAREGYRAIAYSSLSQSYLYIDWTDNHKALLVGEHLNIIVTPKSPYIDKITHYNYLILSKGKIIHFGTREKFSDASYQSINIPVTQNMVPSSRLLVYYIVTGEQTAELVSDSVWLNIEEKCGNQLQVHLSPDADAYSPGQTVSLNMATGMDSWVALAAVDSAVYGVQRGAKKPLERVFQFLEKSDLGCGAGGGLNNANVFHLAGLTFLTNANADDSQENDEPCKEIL
Chain of human complement protein C5 (P01031 678-1676 limits assumed, chain 2 of 2): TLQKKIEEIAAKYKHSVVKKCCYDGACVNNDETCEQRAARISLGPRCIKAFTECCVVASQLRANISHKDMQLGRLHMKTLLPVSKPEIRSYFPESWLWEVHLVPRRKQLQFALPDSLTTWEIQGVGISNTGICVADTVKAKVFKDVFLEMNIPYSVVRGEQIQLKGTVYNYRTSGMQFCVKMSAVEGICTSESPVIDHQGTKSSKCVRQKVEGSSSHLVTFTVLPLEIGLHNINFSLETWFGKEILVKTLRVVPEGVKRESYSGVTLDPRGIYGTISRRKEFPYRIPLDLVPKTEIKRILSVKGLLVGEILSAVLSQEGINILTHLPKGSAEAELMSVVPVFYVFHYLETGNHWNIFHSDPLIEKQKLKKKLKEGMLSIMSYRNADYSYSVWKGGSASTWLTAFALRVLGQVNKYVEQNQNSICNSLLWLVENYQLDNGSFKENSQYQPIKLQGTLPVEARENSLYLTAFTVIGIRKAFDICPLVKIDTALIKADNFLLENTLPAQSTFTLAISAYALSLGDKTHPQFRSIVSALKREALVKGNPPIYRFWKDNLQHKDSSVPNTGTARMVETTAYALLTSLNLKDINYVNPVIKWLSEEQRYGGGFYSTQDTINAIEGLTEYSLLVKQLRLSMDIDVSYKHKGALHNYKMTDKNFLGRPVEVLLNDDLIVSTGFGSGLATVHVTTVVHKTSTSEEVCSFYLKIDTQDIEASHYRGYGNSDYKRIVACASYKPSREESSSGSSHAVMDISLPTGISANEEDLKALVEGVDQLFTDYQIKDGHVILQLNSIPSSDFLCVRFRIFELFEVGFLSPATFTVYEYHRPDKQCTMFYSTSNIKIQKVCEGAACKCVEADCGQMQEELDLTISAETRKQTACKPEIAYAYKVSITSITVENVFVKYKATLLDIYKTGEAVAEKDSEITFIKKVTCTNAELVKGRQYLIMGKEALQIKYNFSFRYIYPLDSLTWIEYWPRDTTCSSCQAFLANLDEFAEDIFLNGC
Procedure: The 20 purified antibodies were tested by ELISA for their abilities to bind human complement proteins C5, C5b6 and C6. The antibodies were divided into two sets for this analysis. MoC601 HuG4K and HuG4K isotype controls were included alongside each set, as was C601HFKC4 HuG4K (aka 3713) expression supernatant from the original transfection as an additional positive control. In addition, three humanized antibodies (C601HFKC4 HuG4K, C601HPKI HuG4K and C601HPKC4 HuG4K) were included within both sets to allow better comparison between the plates. The antibodies all show specificity for C6 with no detectable binding to C5. All humanized antibodies bind to C6 and to C6 as part of the C5b6 complex. The lower plateaus of the C5b6 complex binding curves are explained by less C6 protein being available for binding when wells are coated with C5b6 complex as opposed to C6 alone. […] The EC₅₀ values are included in the figure but slightly different plateau levels observed for the antibodies are influencing the apparent EC₅₀ values. However, it was noted that the EC₅₀ values tended to be lower on the plates for the second set of antibodies. For this reason, a subset of the 20 antibodies was tested in a further ELISA for binding to C6 and C5b6 complex.
as §4

[6] = target: T1, human complement protein C6; assay: SPR (Biacore 8K), IgG on protein G chip, C6 0.03-25 nM 3-fold series, 1:1 fit
Procedure: as §1, §4

[7] = target: T1, human complement protein C6; assay: ELISA, C6-coated wells, large-scale purified antibody
[8] = target: T1, human complement protein C6; assay: C6-binding ELISA, A650 nm; sample 'human serun' (human serum, 28 days at 37 C) [cont.) E]
Procedure: as §2, §3

[9] = target: T1, human complement protein C6; assay: C6-binding ELISA, A650 nm; sample 'C6-depleted human serum' (28 days at 37 C) [cont.) E]
Procedure: as §2, §3

[10] = target: T1, human complement protein C6; assay: C6-binding ELISA, A650 nm; sample 'PBS, non-incubated' (kept at 4 C) [cont.) E]
Procedure: (§7) The C6-binding ELISA was then used to compare the binding abilities of the C601 antibodies that had been incubated in the 3 different sera to antibody samples that were incubated in PBS at 37 C or kept at 4 C (non-incubated).
(§8) Binding ELISAs used Nunc Maxisorp 384-well plates, wells coated with C6, C5b,6 complex or C5 (Complement Technology Inc, TX) and goat anti-human IgG (Fab specific) peroxidase secondary antibodies (Sigma-Aldrich, A0293) for detection. For the thermal stability assay, IgG supernatants were diluted to their EC₈₀ concentration, incubated at different temperatures for 10 min and C6 binding measured by ELISA with the binding signal plotted against temperature. Kinetics of C6 binding were measured by capturing antibodies from supernatant samples using Protein G biosensors and performing a 20 min association step with 2.5 nM C6 and a 20 min dissociation step using the Octet RED96. […] Binding of C6 measured using a three-fold concentration series of C6 from 0.03 nM-25 nM and data were fitted using a 1:1 model in two independent experiments.
(§9) The Uncle instrument (Unchained Labs) was used to monitor unfolding via intrinsic fluorescence and aggregation by static light scattering across a temperature gradient to obtain melting temperatures (Tₘ). […] Isoelectric points were determined by capillary isoelectric focusing using a PA800+ (Beckman Coulter).

[11] = target: T1, human complement protein C6; assay: C6-binding ELISA, A650 nm; sample 'PBS, non-incubated' (kept at 4 C) [cont.) F]
Procedure: as §7, §8, §9

[12] = target: T1, human complement protein C6; assay: C6-binding ELISA, A650 nm; sample 'PBS' (28 days at 37 C) [cont.) F]
Procedure: as §5, §6

[13] = target: T1, human complement protein C6; assay: C6-binding ELISA, A650 nm; sample 'mouse serum' (28 days at 37 C) [cont.) F]
Procedure: as §2, §3

[14] = target: T1, human complement protein C6; assay: C6-binding ELISA, A650 nm; sample 'human serun' (human serum, 28 days at 37 C) [cont.) F]
Procedure: as §5, §6

[15] = target: T1, human complement protein C6; assay: C6-binding ELISA, A650 nm; sample 'C6-depleted human serum' (28 days at 37 C) [cont.) F]
Procedure: as §2, §3

T1 sequence (P13671 22-934 limits assumed): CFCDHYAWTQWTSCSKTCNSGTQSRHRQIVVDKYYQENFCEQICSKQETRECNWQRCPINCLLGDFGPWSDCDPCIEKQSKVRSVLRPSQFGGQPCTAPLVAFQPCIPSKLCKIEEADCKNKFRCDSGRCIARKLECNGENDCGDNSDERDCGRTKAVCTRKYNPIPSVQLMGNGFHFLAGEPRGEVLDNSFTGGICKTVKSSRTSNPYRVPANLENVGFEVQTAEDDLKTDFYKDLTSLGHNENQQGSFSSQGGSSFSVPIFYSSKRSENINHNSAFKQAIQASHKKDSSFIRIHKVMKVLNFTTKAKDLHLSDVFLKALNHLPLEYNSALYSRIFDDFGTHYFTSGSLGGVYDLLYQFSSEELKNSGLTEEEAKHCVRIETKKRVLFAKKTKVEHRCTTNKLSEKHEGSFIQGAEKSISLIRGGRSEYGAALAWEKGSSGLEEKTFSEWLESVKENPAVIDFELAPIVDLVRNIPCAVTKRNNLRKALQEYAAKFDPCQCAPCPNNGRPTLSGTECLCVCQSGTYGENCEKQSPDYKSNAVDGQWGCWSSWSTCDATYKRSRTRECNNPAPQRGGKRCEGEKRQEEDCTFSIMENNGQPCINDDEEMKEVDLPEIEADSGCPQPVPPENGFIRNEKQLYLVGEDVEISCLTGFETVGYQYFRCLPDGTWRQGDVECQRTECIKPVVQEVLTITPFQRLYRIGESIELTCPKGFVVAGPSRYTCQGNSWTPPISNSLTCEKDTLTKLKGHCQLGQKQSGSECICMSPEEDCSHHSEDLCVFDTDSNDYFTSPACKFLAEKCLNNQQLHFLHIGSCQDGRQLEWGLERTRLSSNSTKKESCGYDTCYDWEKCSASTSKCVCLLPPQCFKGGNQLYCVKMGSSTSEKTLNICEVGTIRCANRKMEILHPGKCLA

| Kd [1] | koff [1] | kon [1] | EC50 [2] | Kd [3] | EC50 [4] | binding result [5] | Kd [6] | koff [6] | kon [6] | EC50 [7] | EC50 [8] | EC50 [9] | EC50 [10] | EC50 [11] | EC50 [12] | EC50 [13] | EC50 [14] | EC50 [15] | Binder |
| --- | --- | --- | --- | --- | --- | --- | --- | --- | --- | --- | --- | --- | --- | --- | --- | --- | --- | --- | --- |
| 0.284 nM | 0.000375 s⁻¹ | 1.32e+06 M⁻¹ s⁻¹ | 0.16 nM | 0.411 nM | 0.18 nM | no binding | 0.411 nM | 0.000492 s⁻¹ | 1.2e+06 M⁻¹ s⁻¹ | 0.21 nM | 0.16 nM | 0.15 nM | 0.13 nM |  |  |  |  |  | C601HOKC4 HuG4K (antibody, human IgG4 S228P, kappa, V domains shown) VH: QVQLVQSGAEVKKPGESLKISCKASGYAFSDYWINWVRQMPGKGLEWMGQIYPGDDDTNYNPSFQGQATLSADKSISTAYLQWSSLKASDTAMYYCAREGYYGYTYVEYFDVWGTGTTVTVSS VL: QIVLTQSPATLSLSPGERATLSCRASSSVSYLHWYQQKPGQSPRLWIYDTSKRATGIPARFSGSGSGTDYTLTISSLEPEDFAVYYCQQWTSNPLTFGQGTKLEIKR |
| 0.299 nM | 0.000355 s⁻¹ | 1.19e+06 M⁻¹ s⁻¹ |  | 0.373 nM |  | no binding | 0.373 nM | 0.000397 s⁻¹ | 1.07e+06 M⁻¹ s⁻¹ | 0.23 nM |  |  |  | 0.22 nM | 0.19 nM | 0.16 nM | 0.17 nM | 0.17 nM | C601HPKC4 HuG4K (antibody, human IgG4 S228P, kappa) heavy: not shown light: QIVLTQSPATLSLSPGERATLSCRASSSVSYLHWYQQKPGQSPRLWIYDTSKRATGIPARFSGSGSGTDYTLTISSLEPEDFAVYYCQQWTSNPLTFGQGTKLEIKRTVAAPSVFIFPPSDEQLKSGTASVVCLLNNFYPREAKVQWKVDNALQSGNSQESVTEQDSKDSTYSLSSTLTLSKADYEKHKVYACEVTHQGLSSPVTKSFNRGEC |

Source: patent publication US20260125455A1 (CLEVELAND CLINIC FOUNDATION, published 2026)
